Laboratory results: IntAct's records for PubMed 25283965

B1: C-C chemokine receptor type 2 (Homo sapiens), P41597-2 (parent)
chain: MLSTSRSRFIRNTNESGEEVTTFFDYDYGAPCHKFDVKQIGAQLLPPLYSLVFIFGFVGNMLVVLILINCKKLKCLTDIYLLNLAISDLLFLITLPLWAHSAANEWVFGNAMCKLFTGLYHIGYFGGIFFIILLTIDRYLAIVHAVFALKARTVTFGVVTSVITWLVAVFASVPGIIFTKCQKEDSVYVCGPYFPRGWNNFHTIMRNILGLVLPLLIMVICYSGILKTLLRCRNEKKRHRAVRVIFTIMIVYFLFWTPYNIVILLNTFQEFFGLSNCESTSQLDQATQVTETLGMTHCCINPIIYAFVGEKFRRYLSVFFRKHITKRFCKQCPVFYRETVDGVTSTNTPSTGEQEVSAGL
partner: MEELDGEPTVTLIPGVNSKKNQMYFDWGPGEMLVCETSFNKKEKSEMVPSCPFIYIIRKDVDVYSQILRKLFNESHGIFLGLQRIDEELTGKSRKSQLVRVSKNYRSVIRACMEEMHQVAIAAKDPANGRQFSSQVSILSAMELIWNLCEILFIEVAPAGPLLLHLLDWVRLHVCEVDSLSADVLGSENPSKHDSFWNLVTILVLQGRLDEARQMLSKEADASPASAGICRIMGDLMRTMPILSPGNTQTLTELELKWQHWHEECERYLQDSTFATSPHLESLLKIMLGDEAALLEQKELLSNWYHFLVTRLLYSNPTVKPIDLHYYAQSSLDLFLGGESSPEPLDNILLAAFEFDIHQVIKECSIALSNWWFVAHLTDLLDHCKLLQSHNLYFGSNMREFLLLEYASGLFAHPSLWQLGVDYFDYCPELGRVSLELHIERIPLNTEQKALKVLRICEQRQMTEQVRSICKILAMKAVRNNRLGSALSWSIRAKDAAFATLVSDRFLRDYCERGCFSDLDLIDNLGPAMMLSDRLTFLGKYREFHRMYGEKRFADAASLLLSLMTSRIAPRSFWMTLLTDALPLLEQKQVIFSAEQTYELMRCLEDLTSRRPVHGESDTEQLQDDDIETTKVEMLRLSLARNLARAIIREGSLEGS

Variants of: B1
Details: with nup85_human NUP85, Q9BW27
L316T was tested, and the “effect of a mutation on the interaction” value was “decreasing interaction strength”.

Variants of: B1
Details: with nup85_human NUP85, Q9BW27
Remark: another data set of the same source
With F319D the “effect of a mutation on the interaction” value was “decreasing interaction strength”.
